Laboratory results as given in article PMC12093452.

Target: Postsynaptic density lattice (PSDL) preparation (OG-11U-IS) (rat)
Test: negative-staining electron microscopy of grid-immobilised structures incubated with polymerizing tubulin; PSDL or PSD immobilised on the Formvar membrane of an EM grid, blocked with NGS and BSA at 0°C and 37°C, placed on a droplet of tubulin (ML116, 2 mg/mL, GTB, 1 mM GTP, 5% glycerol) polymerizing at 37°C; fixed with 1% glutaraldehyde, stained with nano-W

## Tubulin MAP-rich, ML116, Cytoskeleton Inc. (from UniProt P02550 1-451) (complex)
  percent of MT ends associated with PSDL and/or PSDL-like structures: 30.9%
